These results are taken from patent publication US20110053865A1 (Ablynx, published 2011).

“And” between values parts separate entries of the source, which are not always exact repeats. Equal entries are not always repeated. Where two headings read alike, the source gives them in different places.

Assay [1] addresses T1, recombinant human IL-23 (p19/p40) (human, UniProt Q9NPF7 20-189; P29460 23-328).
T1 construct: Bought heterodimer (R&D Systems or eBioscience); biotinylated in the alpha-screens; also called hIL-23
T1 sequence (looked up) 1: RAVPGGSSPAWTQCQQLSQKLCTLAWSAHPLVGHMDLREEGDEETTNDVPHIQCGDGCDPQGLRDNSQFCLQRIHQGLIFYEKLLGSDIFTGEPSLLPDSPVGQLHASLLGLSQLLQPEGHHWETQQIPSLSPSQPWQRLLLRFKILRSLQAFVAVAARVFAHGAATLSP
T1 sequence (looked up) 2: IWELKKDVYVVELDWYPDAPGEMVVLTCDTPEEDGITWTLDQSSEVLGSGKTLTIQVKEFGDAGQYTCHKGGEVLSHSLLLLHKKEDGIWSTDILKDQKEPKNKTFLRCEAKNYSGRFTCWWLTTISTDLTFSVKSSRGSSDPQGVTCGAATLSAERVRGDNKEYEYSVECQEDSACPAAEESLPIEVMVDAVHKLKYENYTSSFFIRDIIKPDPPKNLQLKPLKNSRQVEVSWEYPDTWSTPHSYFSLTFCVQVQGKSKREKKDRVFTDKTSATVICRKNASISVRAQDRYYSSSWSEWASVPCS
As to the kind of experiment: SPR Biacore, hIL-23 on chip.
Description: Nanobody binding was assessed at one concentration (100 nM). Each Nanobody was injected for 4 minutes at a flow rate of 45 μl/min to allow binding to chip-bound antigen. Next, binding buffer without Nanobody was sent over the chip at the same flow rate to allow spontaneous dissociation of bound Nanobody.

Assay [2] concerns the target T2, cynomolgus IL-23 (cynomolgus).
T2 construct: also called cyno IL-23; cIL-23
Description: SPR Biacore, cyno IL-23 on chip. Background: SPR reads the build-up and loss of mass on a sensor chip optically.

Assay [3] concerns the target T1, recombinant human IL-23 (p19/p40). As to the kind of experiment: cell-based or functional assay.
The target in assay [4] is T2, cynomolgus IL-23. Description: cell-based or functional assay.
Assay [5] deals with T1, recombinant human IL-23 (p19/p40). Description: cell-based or functional assay. The source holds these as a separate data set.
Assay [6] has the same target. Description: cell-based or functional assay. The source holds these as a separate data set.
Assay [7] has as its target T2, cynomolgus IL-23. Description: cell-based or functional assay. The source holds these as a separate data set.
Assay [8] addresses T1, recombinant human IL-23 (p19/p40). As to the kind of experiment: cell-based or functional assay. This is another data set of the same source.
The target is the same in assay [9]. Description: cell-based or functional assay. The source holds these as a separate data set.
Assay [10] has the same target. Description: cell-based or functional assay. The source holds these as a separate data set.
Assay [11] has the same target. As to the kind of experiment: cell-based or functional assay. This is another data set of the same source.
For assay [12] the target is unchanged. As to the kind of experiment: SPR Biacore, hIL-23.
Assay [13] has the same target. Description: SPR Biacore, hIL-23. This is another data set of the same source.
Assay [14] has the same target. Description: SPR Biacore, hIL-23. This is another data set of the same source.
Assay [15] has the same target. Description: cell-based or functional assay. This is another data set of the same source.
Assay [16] deals with T2, cynomolgus IL-23. Description: cell-based or functional assay. This is another data set of the same source.
For assay [17], the target named is T2, cynomolgus IL-23. As to the kind of experiment: alpha-screen, cIL-23/IL-23R. Background: Bead proximity is the source of the signal in Alpha formats.
For assay [18], the target named is T1, recombinant human IL-23 (p19/p40). Description: alpha-screen, hIL-23/IL-23R.
Assay [19] shares this target. Description: SPR Biacore 3000, hIL-23 on chip.
Description: Binding kinetics of the second round variants are in depth analysed by Surface Plasmon Resonance (Biacore 3000). […] Nanobody binding was assessed at one concentration (100 nM). Each Nanobody was injected for 4 minutes at a flow rate of 45 μl/min to allow binding to chip-bound antigen. Next, binding buffer without Nanobody was sent over the chip at the same flow rate to allow spontaneous dissociation of bound Nanobody.

B1: P23IL 84G1 (VHH)
VHH: EVQLVESGGGMVQAGGSLRLSCTASGLTDNSYAMGWFRRAPGKEREFLTGLTLSGGSTYYADSVKGRFTTSRDSQKNTVSLQMNSLKPEDTAVYYCAANRFGYGSAAYTPDNYNYWAQGTQVTVSS
notes: p40- Nanobody
Regarding B1, the koff in assay [1] came to 0.0002 s⁻¹; with cynomolgus IL-23 [2] it was 0.0024 s⁻¹.

B2: P23IL119A3-35GS-81G2-GGGC-PEG40 linear (bispecific antibody)
chain: EVQLVESGGGLVQAGGSLRLSCAASGRIFSLPASGNIFNLLTIAWHRQAPGMQRELVATINSGSRTNYADSVKGRFTISRDNAQKTVYLQMNNLKPEDTAVYYCQTSGSGSPNFWGQGTQVTVSSGGGGSGGGGSGGGGSGGGGSGGGGSGGGGSGGGGSEVQLVESGGGLVQPGGSLRLSCIASGLPFSTKSMGWFRQAPGKEREFVARISPGGTSRYYGDFVKGRFAISRDNAKNTTWLQMNSLKAEDTAVYYCASGERSTYIGSNYYRTNEYDYWGTGTQVTVSSGGGC
modifications: linear mPEG40 (maleimide) on the C-terminal Cys of GGGC
On to B2, for which the “IC50, splenocyte assay, 19 pM hIL-23” value in [3] and in assay [6] was 7.1 pM each time. Besides, the “IC50, splenocyte assay, 3.8 pM cIL-23” value in the assay with cynomolgus IL-23 [4] and with cynomolgus IL-23 [7] was 4.7 pM each time. Further, the “IC50, BAF3 proliferation assay, 76 pM hIL-23” value in assay [5] worked out at 58.5 pM. In [8], the “IC50, BA/F3 proliferation assay, 76 pM hIL-23” value was 71 pM.

B3: P23IL119A3-35GS-81G2-GGGC-PEG40 branched (bispecific antibody)
chain: EVQLVESGGGLVQAGGSLRLSCAASGRIFSLPASGNIFNLLTIAWHRQAPGMQRELVATINSGSRTNYADSVKGRFTISRDNAQKTVYLQMNNLKPEDTAVYYCQTSGSGSPNFWGQGTQVTVSSGGGGSGGGGSGGGGSGGGGSGGGGSGGGGSGGGGSEVQLVESGGGLVQPGGSLRLSCIASGLPFSTKSMGWFRQAPGKEREFVARISPGGTSRYYGDFVKGRFAISRDNAKNTTWLQMNSLKAEDTAVYYCASGERSTYIGSNYYRTNEYDYWGTGTQVTVSSGGGC
modifications: branched mPEG40 (maleimide) on the C-terminal Cys of GGGC
As to B3, the “IC50, splenocyte assay, 19 pM hIL-23” value in assay [3] came to 5.6 pM. Besides, the “IC50, splenocyte assay, 3.8 pM cIL-23” value in the assay with cynomolgus IL-23 [4] turned out to be 5.3 pM. Also, the “IC50, BAF3 proliferation assay, 76 pM hIL-23” value in assay [5] was found to be 61.2 pM.

B4: P23IL-121A2-35GS-119G7 (bispecific antibody)
chain: EVQLVESGGGLVQAGGSLRLSCAASGSIFNFNYMGWFRQAPGKEREFVAAIRWSGSSTYYADSVKGRFTISRDDAKNTVALQMNSLKPEDTAIYYCALRKGIPYSTSDRVIKGVNDYDYWGQGTQVTVSSGGGGSGGGGSGGGGSGGGGSGGGGSGGGGSGGGGSEVQLVESGGGLVQAGGSLTLSCAVSGLTFNNYAMGWFRQVPGKEREFVAAISRSGLRTFYSDSVKGRFTISRDSAKSTVYVQMNNLKPEDTAVYFCAADRRTYYSEGPSLTDTLRYDYWGQGTQVTVSS
B4: in assay [9], the “IC50, splenocyte assay (mIL-17)” value fell in the range of 0.03 to 0.06 nM. For the same molecule, the “IC50, splenocyte assay, 37 pM hIL-23” value in assay [10] worked out at 42 pM. In addition, in [3], the “IC50, splenocyte assay, 19 pM hIL-23” value came out at 26 pM.

B5: P23IL 81A1 (VHH)
VHH: EVQLVESGGGLVQTGGSLRLSCAASVINFRLADMDWYRQALGKQRELVASISTGYRTNYADFVKGRFTISRDNAKNTVYLQMDSLKPEDTAVYYCAARDLRGLRVDYWGQGTQVTVSS
In the case of B5, the koff amounted to 0.00059 s⁻¹ in [1] and 0.012 s⁻¹ in the assay with cynomolgus IL-23 [2].

B6: P23IL-121A2-35GS-81G2 (bispecific antibody)
chain: EVQLVESGGGLVQAGGSLRLSCAASGSIFNFNYMGWFRQAPGKEREFVAAIRWSGSSTYYADSVKGRFTISRDDAKNTVALQMNSLKPEDTAIYYCALRKGIPYSTSDRVIKGVNDYDYWGQGTQVTVSSGGGGSGGGGSGGGGSGGGGSGGGGSGGGGSGGGGSEVQLVESGGGLVQPGGSLRLSCIASGLPFSTKSMGWFRQAPGKEREFVARISPGGTSRYYGDFVKGRFAISRDNAKNTTWLQMNSLKAEDTAVYYCASGERSTYIGSNYYRTNEYDYWGTGTQVTVSS
B6: the “IC50, splenocyte assay (mIL-17)” value in assay [9] is approximately 0.09 nM. Also, the “IC50, splenocyte assay, 19 pM hIL-23” value in [11] worked out at 94 pM; in [3], 154 pM.

B7: P23IL 22D10 (VHH)
VHH: EVQLVESGGGLVQAGASLRLSCAASGRTFRSYNMGWLRQAPGKEREFVATISWNAGIPYYADSVKGRFTISRDNAKNTVYLQMNSLKPEDTAVYYCAASNSWSSSARFYDYWGQGTQVTVSS
notes: p40- Nanobody
Take B7: the koff in assay [1] was determined as 0.001 s⁻¹; with cynomolgus IL-23 [2] it was 0.0001 s⁻¹.

B8: P23IL81G2-BASIC (VHH, name in Kabat numbering)
VHH: EVQLVESGGGLVQPGGSLRLSCIASGLPFSTKSMGWFRQAPGKGREFVARISPGGTSRYYGDFVKGRFAISRDNAKNTTWLQMNSLKAEDTAVYYCASGERSTYIGSNYYRTNEYDYWGTGTLVTVSS
notes: The sentence giving the two substitutions prints 'P23IL81A12basic' within the 81G2 paragraph
Consider B8, for which the koff in [12] amounted to 0.00032 s⁻¹.

B9: P23IL81A12 (VHH)
VHH: EVQLVESGGGLVQAGGSLRLSCAASGRTLSSYAMGWFRQAPGKEREFVARISQGGTAIYYADSVKGRFTISRDNAKNTVYLQMNSLKPEDTAVYYCAKDPSPYYRGSAYLLSGSYDSWGQGTQVTVSS
notes: p19- Nanobody
Regarding B9, the koff in assay [13] was 0.00022 s⁻¹. Besides, in assay [14], the Kd came out at 0.38 nM, the koff was 0.00021 s⁻¹ and the association rate constant (kon) amounted to 560000 M⁻¹ s⁻¹.

B10: P23IL81A12-BASIC (VHH)
VHH: EVQLVESGGGLVQPGGSLRLSCAASGRTLSSYAMGWFRQAPGKEREFVARISQGGTAIYYADSVKGRFTISRDNAKNTLYLQMNSLRPEDTAVYYCAKDPSPYYRGSAYLLSGSYDSWGQGTLVTVSS
In the case of B10, the dissociation rate constant (koff) in assay [13] turned out to be 0.00024 s⁻¹.

B11: P23IL-121A2 (VHH)
VHH: EVQLVESGGGLVQAGGSLRLSCAASGSIFNFNYMGWFRQAPGKEREFVAAIRWSGSSTYYADSVKGRFTISRDDAKNTVALQMNSLKPEDTAIYYCALRKGIPYSTSDRVIKGVNDYDYWGQGTQVTVSS
As for B11, the “IC50, splenocyte assay (mIL-17)” value in assay [9] was approximately 1.5 nM.

B12: P23IL80D10 (VHH)
VHH: EVQLVESGGGLVQAGGSLRLSCAASGRTFEGNPMGWFRQASGKKREFVASIDWSGGITSYADSVKGRFTISRDNAKNTVYLQMNSLKPEDTAVYYCAASARFGSGSYYDLMYDYWGQGTQVTVSS
notes: p40- Nanobody
For B12, the koff is 9.7e-05 s⁻¹ in assay [1]; 0.000105 s⁻¹ and 7.9e-05 s⁻¹ with cynomolgus IL-23 [2].

B13: P23IL119A3v16 (VHH)
VHH: EVQLLESGGGLVQPGGSLRLSCAASGRIFSLPASGNIFNLLTIAWYRQAPGKGRELVATINSGSRTYYADSVKGRFTISRDNSKKTLYLQMNSLRPEDTAVYYCQTSGSGSPNFWGQGTLVTVSS
notes: Final humanization variant of 119A3
On to B13, for which the “IC50, splenocyte assay hIL-23” value in assay [15] came out at 45.1 nM. The “IC50, splenocyte assay cIL-23” value in the assay with cynomolgus IL-23 [16] amounted to 82.6 nM. Moreover, the results for the IC50 (with cynomolgus IL-23 [17]; in [18]) were 0.7 nM and 1.24 nM, respectively. Also, in assay [19], the koff is 0.0055 s⁻¹ and 0.0019 s⁻¹.

B14: P23IL-121A2-9GS-119G7 (bispecific antibody)
chain: EVQLVESGGGLVQAGGSLRLSCAASGSIFNFNYMGWFRQAPGKEREFVAAIRWSGSSTYYADSVKGRFTISRDDAKNTVALQMNSLKPEDTAIYYCALRKGIPYSTSDRVIKGVNDYDYWGQGTQVTVSSGGGGSGGGSEVQLVESGGGLVQAGGSLTLSCAVSGLTFNNYAMGWFRQVPGKEREFVAAISRSGLRTFYSDSVKGRFTISRDSAKSTVYVQMNNLKPEDTAVYFCAADRRTYYSEGPSLTDTLRYDYWGQGTQVTVSS
B14: the “IC50, splenocyte assay, 37 pM hIL-23” value in assay [10] was found to be 4760 pM.

As a reminder, the koff is the rate constant with which the complex falls apart. The term Kd denotes the concentration at which binding is half-saturated. The kon is the rate constant with which the complex forms. For orientation: IC50 means the point on the concentration scale where inhibition reaches its midpoint.
